The text below walks through data of patent US6713280 (THOMAS JEFFERSON UNIVERSITY, dated 2004).

No end group written: not given here. *: point of attachment. Decanoyl = CCCCCCCCCC(=O)*

Broadly, the EC50 is the concentration giving half of the maximal effect. High values mean a need for much substance, low ones an effect from little substance.

One assay has as its target Bax (UniProt Q07812 1-171, limits assumed). The assay can be described thus: fluorescence polarization, FIG. 2: C. A general note: Fluorescence polarisation rises when a labelled molecule tumbles more slowly, as on binding a larger partner.
The target in a further assay is CD4 (UniProt P01730 26-396, limits assumed). Nature of the assay: fluorescence polarization, FIG. 2: E.
In assay [1] the target is T1, SH3 domain of the Bcr-Abl oncoprotein (UniProt P00519 61-121).
T1 construct: domain: SH3 domain; also called Bcr-Abl SH3
T1 sequence (P00519 61-121 limits assumed): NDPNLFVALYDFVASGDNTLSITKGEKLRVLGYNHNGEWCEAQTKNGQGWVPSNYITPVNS
The assay can be described thus: fluorescence polarization, FIG. 2: D.

Another assay has as its target T2, GST-Bcl-2 protein (UniProt P10415 1-205, limits assumed).
T2 construct: not shown: GST tag
The assay can be described thus: fluorescence polarization competition; 30 nM Flu-SEQ ID NO:30, 0.5 µM GST-Bcl-2, conjugate at 0.005-0.32 µM, 30 minutes at 37° C.

T2 sequence (P10415 1-205 limits assumed): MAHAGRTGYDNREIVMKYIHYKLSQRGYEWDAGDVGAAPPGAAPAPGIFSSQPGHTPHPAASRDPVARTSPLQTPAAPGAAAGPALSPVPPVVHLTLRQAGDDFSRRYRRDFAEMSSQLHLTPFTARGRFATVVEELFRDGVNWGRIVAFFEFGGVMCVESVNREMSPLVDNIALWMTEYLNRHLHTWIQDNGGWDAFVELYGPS
Chain of Bax (Q07812 1-171 limits assumed): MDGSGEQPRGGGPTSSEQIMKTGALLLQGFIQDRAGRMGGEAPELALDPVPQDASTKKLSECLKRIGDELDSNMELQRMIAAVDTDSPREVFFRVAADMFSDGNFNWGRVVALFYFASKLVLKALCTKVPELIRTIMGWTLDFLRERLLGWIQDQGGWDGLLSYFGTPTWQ

B1: fluorescein-labeled peptide SEQ ID NO:30 (Flu-SEQ ID NO:30) (peptide)
peptide: GQVGRQLAIIGDDINR
modifications: also: fluorescein label, site of attachment not given here
notes: Synthetic peptide labeled with fluorescein; tracer of the fluorescence polarization assay; also called fluoresceinated BakBH3 peptide; Flu-SQ30
B1: the binding result (in the assay with Bax; with CD4; in assay [1]) was “no binding” throughout.

For Decanoyl-KNLWAAQRYGRELRRMSDEFEGSFKGL (also called decyl-K1285) [decyl-SEQ ID NO:56 (CH3(CH2)8COHN-KNLWAAQRYGRELRRMSDEFEGSFKGL)], in the assay with GST-Bcl-2 protein, a half-maximal response (EC50) required 0.13 µM.
